Reference: US20150322137A1 (EVEC, published 2015)

Experiments:
Assay in all cases: cell-based or functional assay
[1] = target: T1, F protein of human metapneumovirus strain JPS03-180 (type A1), on infectious virus (human metapneumovirus, strain JPS03-180 …)
[2] = target: T2, F protein of human metapneumovirus strain JPS05-21 (type B2), on infectious virus (human metapneumovirus, strain JPS05-21 …)
[3] = target: T3, F protein of human metapneumovirus strain JPS02-76 (type B1), on infectious virus (human metapneumovirus, strain JPS02-76 …, UniProt Q6WB98 19-539)
[4] = target: T3, F protein of human metapneumovirus …; remark: listed apart in the source
[5] = target: T4, F protein of human metapneumovirus strain JPS03-178 (type A2), on infectious virus (human metapneumovirus, strain JPS03-178 …)
[6] = target: T1, F protein of human metapneumovirus …; remark: listed apart in the source
[7] = target: T2, F protein of human metapneumovirus …; remark: listed apart in the source
[8] = target: T3, F protein of human metapneumovirus …; remark: listed apart in the source
[9] = target: T4, F protein of human metapneumovirus …; remark: listed apart in the source
[10] = target: T1, F protein of human metapneumovirus …; remark: listed apart in the source
[11] = target: T2, F protein of human metapneumovirus …; remark: listed apart in the source
[12] = target: T3, F protein of human metapneumovirus …; remark: listed apart in the source
[13] = target: T4, F protein of human metapneumovirus …; remark: listed apart in the source
[14] = target: T1, F protein of human metapneumovirus …; remark: listed apart in the source
[15] = target: T2, F protein of human metapneumovirus …; remark: listed apart in the source

Binder	IC50, neutralizing activity (hMPV infection of LLC-MK2 cells) [1] [µg/mL]	IC50, neutralizing activity (hMPV infection of LLC-MK2 cells) [2] [µg/mL]	IC50, neutralizing activity (hMPV infection of LLC-MK2 cells) [3] [µg/mL]	IC50, cell-to-cell spread inhibitory activity (LLC-MK2 cells stably expressing TMPRSS2) [4] [µg/mL]	IC90, cell-to-cell spread inhibitory activity (LLC-MK2 cells stably expressing TMPRSS2) [4] [µg/mL]	IC60, neutralizing activity (hMPV infection of LLC-MK2 cells; GraphPad Prism 6) [5] [µg/mL]	IC60, neutralizing activity (hMPV infection of LLC-MK2 cells; GraphPad Prism 6) [6] [µg/mL]	IC60, neutralizing activity (hMPV infection of LLC-MK2 cells; GraphPad Prism 6) [7] [µg/mL]	IC60, neutralizing activity (hMPV infection of LLC-MK2 cells; GraphPad Prism 6) [8] [µg/mL]	IC90, neutralizing activity (hMPV infection of LLC-MK2 cells; GraphPad Prism 6) [9] [µg/mL]	IC90, neutralizing activity (hMPV infection of LLC-MK2 cells; GraphPad Prism 6) [10] [µg/mL]	IC90, neutralizing activity (hMPV infection of LLC-MK2 cells; GraphPad Prism 6) [11] [µg/mL]	IC90, neutralizing activity (hMPV infection of LLC-MK2 cells; GraphPad Prism 6) [12] [µg/mL]	IC50, neutralizing activity (hMPV infection of LLC-MK2 cells; GraphPad Prism 6) [13] [µg/mL]	IC50, neutralizing activity (hMPV infection of LLC-MK2 cells; GraphPad Prism 6) [14] [µg/mL]	IC50, neutralizing activity (hMPV infection of LLC-MK2 cells; GraphPad Prism 6) [15] [µg/mL]
EV046141 (antibody, human IgG1, lambda, V domains shown) VH: QVQLVQSGAEVKKPGASVKVSCKASGYTFADYYIHWLRQAPGQGLEWLGRINPSNSRTTYPQKFQGRVTVTRDTSTSTVYMELSSLRSADTAVYYCARDGLRMGYYYMDVWGKGTTVTVSS VL: QSVLTQPPSVSGAPGQRVTISCTGSSSNIGAGYDVHWYQQIPGTAPKLLIFGNYNRPSGVPDRFSASKSGTSASLAITGLQAEDEAHYYCQSYDTTLDGAVFGGGTKLTVLG	0.2	0.44	0.74	0.0363	0.171	2.18	0.276	0.571	0.883	2.52	0.863	0.836	2.18	2.11	0.213	0.524
EV046124 (antibody, human IgG1, lambda, V domains shown) VH: QVQLVQSGTELKKPGASVKVSCKASGYTFTDYSMHWLRQAPGESLEWMGWVNGGPLDTKYSPTFQDRVSFSRDVFATTAYMDLSSLGPEDTAVYYCARGWGITAYRGDAFDLWGQGTMVIVSS VL: SFVLTQPPSVSVAPGKSARITCGASNIESKSVHWYQQKPGQAPVVVVYDDDDRPSGIPERFSGSNSGNTATLIINRVEVGDEADYYCQVWDSTSDMYVFGAGTKVTVLG	0.07	0.24	0.29	0.0482	0.26	0.0539	0.102	0.305	0.423	0.188	0.365	0.677	0.952	0.0407	0.0767	0.255
EV046115b (antibody, human IgG1, lambda, V domains shown) VH: QVQLVQSGAEVKKPGASVKVSCKASGYTFSVYGISWVRQAPGHGLEWMGWISAYNGDRGYAQKVQGRITMTTDTSASTAYMELRSLTSDDTAVYYCATTSSGVPGIYWGQGSLVTVSS VL: not shown	0.29	0.099	0.27	0.135	0.617	2.71	0.4	0.133	0.376	5.75	1.03	0.345	2.3	2.28	0.322	0.108
